Results on 39 variants are retold here after the Human Domainome abundance scans (Beltran et al. 2025).

± gives the uncertainty stated by the source.

First the molecules themselves.
B1: Pituitary-specific positive transcription factor 1, residues 130 to 198; numbered along this chain, P28069 (parent)
chain: RELEKFANEFKVRRIKLGYTQTNVGEALAAVHGSEFSQTTICRFENLQLSFKNACKLKAILSKWLEEAE

The variants in this series derive from B1. In words: abundance fitness (aPCA) (normalised: wild type 0, dead -1); higher = more abundant; growth selection in yeast, the domain comes from the species named. The note with it: Homo sapiens.
In the case of RELEKFANEFKVRRIKLGYTQTNAGEALAAVHGSEFSQTTICRFENLQLSFKNACKLKAILSKWLEEAE [V24A], the abundance fitness is -0.728 ± 0.26.

For RELEKFANEFKVRRIKLGYTQTNKGEALAAVHGSEFSQTTICRFENLQLSFKNACKLKAILSKWLEEAE [V24K], the abundance fitness is -0.846 ± 0.47.

For RELEKFANEFKVRRIKLGYTQTYVGEALAAVHGSEFSQTTICRFENLQLSFKNACKLKAILSKWLEEAE [N23Y], the abundance fitness was 0.008 ± 0.1.

Take RELEKFANEFKVRRIKLGYTQTCVGEALAAVHGSEFSQTTICRFENLQLSFKNACKLKAILSKWLEEAE [N23C]: the abundance fitness was -0.184 ± 0.16.

As for RELEKFANEFKVRRIKLGYTQTIVGEALAAVHGSEFSQTTICRFENLQLSFKNACKLKAILSKWLEEAE [N23I], the abundance fitness is -0.539 ± 0.17.

In the case of RELEKFANEFKVRRIKLGYTQTQVGEALAAVHGSEFSQTTICRFENLQLSFKNACKLKAILSKWLEEAE [N23Q], the abundance fitness is 0.347 ± 0.18.

For the variant RELEKFANEFKVRRIKLGYTQTPVGEALAAVHGSEFSQTTICRFENLQLSFKNACKLKAILSKWLEEAE [N23P], the abundance fitness is -0.992 ± 0.39.

Turning to RELEKFANEFKVRRIKLGYTQTSVGEALAAVHGSEFSQTTICRFENLQLSFKNACKLKAILSKWLEEAE [N23S], the abundance fitness was found to be 0.086 ± 0.053.

Regarding RELEKFANEFKVRRIKLGYTQTHVGEALAAVHGSEFSQTTICRFENLQLSFKNACKLKAILSKWLEEAE [N23H], the abundance fitness is 0 ± 0.077.

For the variant RELEKFANEFKVRRIKLGYTQTAVGEALAAVHGSEFSQTTICRFENLQLSFKNACKLKAILSKWLEEAE [N23A], the abundance fitness turned out to be 0.267 ± 0.074.

For the variant RELEKFANEFKVRRIKLGYTQTMVGEALAAVHGSEFSQTTICRFENLQLSFKNACKLKAILSKWLEEAE [N23M], the abundance fitness was determined as 0.392 ± 0.071.

As for RELEKFANEFKVRRIKLGYTQTFVGEALAAVHGSEFSQTTICRFENLQLSFKNACKLKAILSKWLEEAE [N23F], the abundance fitness was 0.145 ± 0.095.

Consider RELEKFANEFKVRRIKLGYTQTRVGEALAAVHGSEFSQTTICRFENLQLSFKNACKLKAILSKWLEEAE [N23R], for which the abundance fitness is -0.053 ± 0.059.

Consider RELEKFANEFKVRRIKLGYTQTLVGEALAAVHGSEFSQTTICRFENLQLSFKNACKLKAILSKWLEEAE [N23L], for which the abundance fitness was -0.478 ± 0.12.

Take RELEKFANEFKVRRIKLGYTQTVVGEALAAVHGSEFSQTTICRFENLQLSFKNACKLKAILSKWLEEAE [N23V]: the abundance fitness was -0.27 ± 0.08.

RELEKFANEFKVRRIKLGYTQTEVGEALAAVHGSEFSQTTICRFENLQLSFKNACKLKAILSKWLEEAE [N23E]: the abundance fitness was found to be 0.352 ± 0.073.

As for RELEKFANEFKVRRIKLGYSQTNVGEALAAVHGSEFSQTTICRFENLQLSFKNACKLKAILSKWLEEAE [T20S], the abundance fitness was -0.044 ± 0.056.

As to RELEKFANEFKVRRIKLGYVQTNVGEALAAVHGSEFSQTTICRFENLQLSFKNACKLKAILSKWLEEAE [T20V], the abundance fitness is -0.789 ± 0.092.

As to RELEKFANEFKVRRIKLGYYQTNVGEALAAVHGSEFSQTTICRFENLQLSFKNACKLKAILSKWLEEAE [T20Y], the abundance fitness is -1.17 ± 0.45.

With RELEKFANEFKVRRIKLGYLQTNVGEALAAVHGSEFSQTTICRFENLQLSFKNACKLKAILSKWLEEAE [T20L], the abundance fitness is -0.683 ± 0.08.

With RELEKFANEFKVRRIKLGYNQTNVGEALAAVHGSEFSQTTICRFENLQLSFKNACKLKAILSKWLEEAE [T20N], the abundance fitness was -0.384 ± 0.099.

Consider RELEKFANEFKVRRIKLGYPQTNVGEALAAVHGSEFSQTTICRFENLQLSFKNACKLKAILSKWLEEAE [T20P], for which the abundance fitness is -0.942 ± 0.3.

In the case of RELEKFANEFKVRRIKLGYCQTNVGEALAAVHGSEFSQTTICRFENLQLSFKNACKLKAILSKWLEEAE [T20C], the abundance fitness is -0.871 ± 0.21.

RELEKFANEFKVRRIKLGYIQTNVGEALAAVHGSEFSQTTICRFENLQLSFKNACKLKAILSKWLEEAE [T20I]: the abundance fitness is -0.951 ± 0.17.

Consider RELEKFANEFKVRRIKLGYEQTNVGEALAAVHGSEFSQTTICRFENLQLSFKNACKLKAILSKWLEEAE [T20E], for which the abundance fitness is -0.536 ± 0.22.

For the variant RELEKFANEFKVRRIKLGYWQTNVGEALAAVHGSEFSQTTICRFENLQLSFKNACKLKAILSKWLEEAE [T20W], the abundance fitness is -1.12 ± 0.25.

For RELEKFANEFKVRRIKLGYQQTNVGEALAAVHGSEFSQTTICRFENLQLSFKNACKLKAILSKWLEEAE [T20Q], the abundance fitness was -0.911 ± 0.2.

On to RELEKFANEFKVRRIKLGYRQTNVGEALAAVHGSEFSQTTICRFENLQLSFKNACKLKAILSKWLEEAE [T20R], for which the abundance fitness is -0.941 ± 0.13.

Regarding RELEKFANEFKVRRIKLGYHQTNVGEALAAVHGSEFSQTTICRFENLQLSFKNACKLKAILSKWLEEAE [T20H], the abundance fitness was -1.05 ± 0.43.

As for RELEKFANEFKVRRIKLGYGQTNVGEALAAVHGSEFSQTTICRFENLQLSFKNACKLKAILSKWLEEAE [T20G], the abundance fitness was -0.662 ± 0.12.

Regarding RELEKFANEFKVRRIKLGQTQTNVGEALAAVHGSEFSQTTICRFENLQLSFKNACKLKAILSKWLEEAE [Y19Q], the abundance fitness was -0.149 ± 0.14.

Regarding RELEKFANEFKVRRIKLGRTQTNVGEALAAVHGSEFSQTTICRFENLQLSFKNACKLKAILSKWLEEAE [Y19R], the abundance fitness is -0.718 ± 0.23.

With RELEKFANEFKVRRIKLGWTQTNVGEALAAVHGSEFSQTTICRFENLQLSFKNACKLKAILSKWLEEAE [Y19W], the abundance fitness is -0.283 ± 0.16.

For the variant RELEKFANEFKVRRIKLGGTQTNVGEALAAVHGSEFSQTTICRFENLQLSFKNACKLKAILSKWLEEAE [Y19G], the abundance fitness was -0.501 ± 0.4.

On to RELEKFANEFKVRRIKLGKTQTNVGEALAAVHGSEFSQTTICRFENLQLSFKNACKLKAILSKWLEEAE [Y19K], for which the abundance fitness was -0.674 ± 0.21.

For RELEKFANEFKVRRIKLGITQTNVGEALAAVHGSEFSQTTICRFENLQLSFKNACKLKAILSKWLEEAE [Y19I], the abundance fitness is -0.382 ± 0.21.

RELEKFANEFKVRRIKLGSTQTNVGEALAAVHGSEFSQTTICRFENLQLSFKNACKLKAILSKWLEEAE [Y19S]: the abundance fitness was -0.696 ± 0.23.

As to RELEKFANEFKVRRIKLGHTQTNVGEALAAVHGSEFSQTTICRFENLQLSFKNACKLKAILSKWLEEAE [Y19H], the abundance fitness is -0.376 ± 0.38.

Consider RELEKFANEFKVRRIKLGVTQTNVGEALAAVHGSEFSQTTICRFENLQLSFKNACKLKAILSKWLEEAE [Y19V], for which the abundance fitness is -0.855 ± 0.34.
